The target in the test is FLAG-ctxIII coexpressed in E. coli with His-ctxI or His-ctxII (Dictyostelium discoideum). Description: AUC.

His-ctxII (recombinant N-terminal His-tagged cortexillin II), sequence (Q550R2 whole entry): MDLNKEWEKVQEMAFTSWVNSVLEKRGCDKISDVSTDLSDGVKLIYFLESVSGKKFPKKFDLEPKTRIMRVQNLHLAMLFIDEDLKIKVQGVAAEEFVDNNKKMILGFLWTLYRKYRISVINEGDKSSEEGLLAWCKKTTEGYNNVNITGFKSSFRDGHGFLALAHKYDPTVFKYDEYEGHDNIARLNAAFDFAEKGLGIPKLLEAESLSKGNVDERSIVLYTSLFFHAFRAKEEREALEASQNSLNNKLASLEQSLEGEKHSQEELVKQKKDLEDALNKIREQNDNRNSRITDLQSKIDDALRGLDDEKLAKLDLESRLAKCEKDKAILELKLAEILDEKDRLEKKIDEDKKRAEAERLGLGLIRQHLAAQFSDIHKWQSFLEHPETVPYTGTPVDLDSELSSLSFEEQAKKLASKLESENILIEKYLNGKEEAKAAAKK
His-ctxI (recombinant N-terminal His-tagged cortexillin I), sequence (Q54HG2 whole entry): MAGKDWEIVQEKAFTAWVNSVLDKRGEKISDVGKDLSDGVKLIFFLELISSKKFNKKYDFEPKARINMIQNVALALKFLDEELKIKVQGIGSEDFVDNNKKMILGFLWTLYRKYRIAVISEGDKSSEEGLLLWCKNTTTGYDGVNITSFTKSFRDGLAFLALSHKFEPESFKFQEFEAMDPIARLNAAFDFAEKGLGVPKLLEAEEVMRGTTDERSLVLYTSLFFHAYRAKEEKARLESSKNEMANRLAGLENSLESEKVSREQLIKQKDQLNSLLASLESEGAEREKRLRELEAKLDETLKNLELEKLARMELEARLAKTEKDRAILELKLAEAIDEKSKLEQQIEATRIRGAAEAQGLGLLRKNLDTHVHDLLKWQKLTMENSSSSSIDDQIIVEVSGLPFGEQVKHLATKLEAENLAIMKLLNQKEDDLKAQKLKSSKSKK

Take “His-ctxII (recombinant N-terminal His-tagged cortexillin II) (from UniProt Q550R2 1-441) (natural protein)”: the major peak (heterodimer), percent of total protein is 70%.
For the substance “His-ctxI (recombinant N-terminal His-tagged cortexillin I) (from UniProt Q54HG2 1-444) (natural protein)”, the major peak (heterodimer), percent of total protein was found to be 60%.

The values are drawn from article PMC4072576.
